Results on three molecules are retold here after patent US20150337308, “MATRIX METALLOPROTEINASE 9 (MMP-9) APTAMER AND USES THEREOF” (CHU DE BORDEAUX, published 2015).

A word on the Kd: it is the concentration at which binding is half-saturated. A lower Kd goes with higher affinity.

The target of data set [1] is T1, hMMP-9 (gelatinase B) (Homo sapiens, UniProt P14780 P14780:107-707). In words: SPR; no detectable signal. As to conditions: tags: Calbiochem. As to the method: (§1) Surface Plasmon Resonance (SPR) experiments were performed on a BIAcore™ 3000 apparatus (Biacore AB, Sweden). 2 μg of hMMP-9 protein were injected on a carboxymethylated dextran CM5 sensorchip for immobilisation and aptamers F3B, F3C1 and F3C2 were injected at 200 nM (20 μl/min) in SP buffer. Alternatively CM5 sensorchips were functionalized with streptavidin. 3′ end biotinylated F3B and F3Bomf were immobilised on the functionalized CM5 and hMMP-9 protein at 100 nM in SP buffer was injected. hMMP-9 was injected at different concentrations (from 5 to 160 nM) in PBS buffer. In another series of experiments 3′end biotinylated aptamer F3Bomf was immobilized and hMMP-9, pro-hMMP-9, mouse pro-MMP-9, human MMP-2 or MMP-7 proteins were injected at 50 nM in PBS buffer. SPR experiments were performed at 23° C., at 20 μl/min, and the complexes were dissociated with a pulse of a solution containing 40% formamide/3.6 M urea/30 mM EDTA (42).
T1 sequence (P14780 107-707, one chain of several): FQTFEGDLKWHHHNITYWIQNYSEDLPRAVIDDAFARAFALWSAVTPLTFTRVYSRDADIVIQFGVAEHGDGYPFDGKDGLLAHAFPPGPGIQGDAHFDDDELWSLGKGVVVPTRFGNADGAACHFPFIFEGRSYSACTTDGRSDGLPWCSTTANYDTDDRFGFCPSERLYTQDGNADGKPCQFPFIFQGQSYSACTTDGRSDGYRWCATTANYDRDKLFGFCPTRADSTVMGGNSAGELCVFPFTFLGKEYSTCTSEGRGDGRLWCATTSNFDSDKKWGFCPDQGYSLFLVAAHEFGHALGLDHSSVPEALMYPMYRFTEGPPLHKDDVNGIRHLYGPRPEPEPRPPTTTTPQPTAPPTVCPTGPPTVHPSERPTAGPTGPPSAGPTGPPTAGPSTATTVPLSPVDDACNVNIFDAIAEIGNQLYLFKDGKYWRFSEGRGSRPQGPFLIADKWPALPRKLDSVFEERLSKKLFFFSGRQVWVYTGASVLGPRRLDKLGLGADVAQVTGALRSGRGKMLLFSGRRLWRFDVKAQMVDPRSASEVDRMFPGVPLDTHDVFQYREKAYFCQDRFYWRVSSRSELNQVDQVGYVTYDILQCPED
Next we optimized the F3B chemistry in the perspective of its use in biological media. […] However the equilibrium constant was evaluated to be in the low nanomolar range. […] In contrast, F3Bomf was able to discriminate between the human and the murine zymogen pro-MMP-9: a weak signal (49 RU) to the mouse pro-MMP-9 was detected, compared to about 1 300 RU with the human proenzyme.
In general terms: SPR reads the build-up and loss of mass on a sensor chip optically.

The target in data set [2] is T2, pro-hMMP-7 (Homo sapiens, UniProt P09237 P09237:18-267).
T2 sequence: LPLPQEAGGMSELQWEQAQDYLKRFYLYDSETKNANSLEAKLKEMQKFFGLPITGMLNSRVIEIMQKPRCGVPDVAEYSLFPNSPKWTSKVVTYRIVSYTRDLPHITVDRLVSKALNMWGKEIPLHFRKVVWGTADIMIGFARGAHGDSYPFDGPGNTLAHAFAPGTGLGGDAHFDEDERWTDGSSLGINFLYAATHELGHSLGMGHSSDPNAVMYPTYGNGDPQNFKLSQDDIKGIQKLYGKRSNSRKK
Nature of the data set: filter; no retention. As to conditions: label: 32P 5' end; imperfect hairpin.

In data set [3] the target is T3, hMMP-7 (Homo sapiens, UniProt P09237 P09237:95-267).
T3 sequence: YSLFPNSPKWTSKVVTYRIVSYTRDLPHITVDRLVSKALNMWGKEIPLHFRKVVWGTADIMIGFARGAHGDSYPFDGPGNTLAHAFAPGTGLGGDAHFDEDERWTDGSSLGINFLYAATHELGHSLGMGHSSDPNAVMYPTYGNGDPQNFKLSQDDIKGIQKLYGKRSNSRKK
Nature of the data set: filter; no retention. As to conditions: label: 32P 5' end; imperfect hairpin.

Data set [4] deals with T1, hMMP-9 (gelatinase B). In words: filter; SP buffer (5 mM CaCl2, 1 mM Mg acetate), 23 C. As to conditions: tags: Calbiochem; label: 32P 5' end; imperfect hairpin. As for the experimental part: The dissociation constant (Kd) of the complexes, formed by the aptamers and the hMMP-9 protein, was determined using the filter retention method. 1 nM of ³²P 5′end-labeled aptamer was incubated with increasing concentrations of hMMP-9 (10, 20, 40, 72, 160, 320, 500 nM) for 20 min at 23° C. in 20 μl SP buffer. Complexes were filtered and the radioactivity retained on the filter was quantified using a scintillation counter (LS 6000 IC, Beckman). Kd values were deduced from data point fitting with Kaleidagraph 3.0 (Abelbeck software), according to the equation: B=(Bmax[L]₀)/([…]), where B is the proportion of complex, Bmax is the maximum of complex formed and [L]₀ is the total concentration of unlabeled ligand.

Data set [5] deals with T3, hMMP-7. In words: SPR; 50 nM protein, PBS. As to conditions: label: 3' biotin; hairpin. As to the method:
as §1

In data set [6] the target is hMMP-2 (gelatinase A) (Homo sapiens, UniProt P08253 P08253:110-660). In words: SPR; 50 nM protein, PBS. Conditions: label: 3' biotin; hairpin. As for the experimental part:
as §1

Sequence of hMMP-2 (gelatinase A) (P08253 110-660, one chain of several): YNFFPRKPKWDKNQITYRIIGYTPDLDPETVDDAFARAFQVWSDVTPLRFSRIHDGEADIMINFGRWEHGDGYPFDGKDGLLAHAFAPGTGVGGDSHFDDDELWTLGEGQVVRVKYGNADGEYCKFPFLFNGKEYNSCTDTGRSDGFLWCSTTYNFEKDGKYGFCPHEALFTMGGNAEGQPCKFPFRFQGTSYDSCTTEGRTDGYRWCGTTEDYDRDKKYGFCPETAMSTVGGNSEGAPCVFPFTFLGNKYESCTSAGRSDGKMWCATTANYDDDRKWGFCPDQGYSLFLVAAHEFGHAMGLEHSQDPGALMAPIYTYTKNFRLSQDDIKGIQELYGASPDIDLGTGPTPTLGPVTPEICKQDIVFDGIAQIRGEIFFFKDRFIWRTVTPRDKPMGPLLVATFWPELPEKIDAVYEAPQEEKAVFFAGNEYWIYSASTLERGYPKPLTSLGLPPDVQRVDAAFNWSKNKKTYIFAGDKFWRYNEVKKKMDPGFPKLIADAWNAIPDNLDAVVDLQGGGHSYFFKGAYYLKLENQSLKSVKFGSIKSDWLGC

B1: control scrambled sequence (XNA)
RNA: UGCCAAACGCGUCCCCUUUGCCCGGCCUCCGCCGCA
modifications: 2'-F pyrimidines, 2'-OMe purines
For B1, the binding result in data set [1] is recorded as “no binding”.

B2: F3 (ssRNA)
RNA: GGUUACCAGCCUUCACUGCCCUGCCCUCACCCGUUAGCCUGAGCGCCCCGCACCACGGUCGGUCACAC
modifications: 2'-F pyrimidines, 2'-OH purines
On to B2, for which the binding result in data set [2] and in data set [3] was “no binding” throughout. Further, in data set [4], the Kd was 8.1 nM.

B3: F3Bomf (XNA)
RNA: UGCCCUGCCCUCACCCGUUAGCCUGAGCGCCCCGCA
modifications: 2'-F pyrimidines, 2'-OMe purines
Regarding B3, the binding result in data set [5] and in data set [6] was “no binding” throughout.
